According to patent US20140242694A1:

Molecular target: CD150 (signaling lymphocyte activation molecule, SLAM) on EBV-infected human B cells, Raji cells or IM-9 cells (human) (UniProt Q13291)
Assay: cell-based or functional assay

Chain of UniProt Q13291 (Q13291 21-335): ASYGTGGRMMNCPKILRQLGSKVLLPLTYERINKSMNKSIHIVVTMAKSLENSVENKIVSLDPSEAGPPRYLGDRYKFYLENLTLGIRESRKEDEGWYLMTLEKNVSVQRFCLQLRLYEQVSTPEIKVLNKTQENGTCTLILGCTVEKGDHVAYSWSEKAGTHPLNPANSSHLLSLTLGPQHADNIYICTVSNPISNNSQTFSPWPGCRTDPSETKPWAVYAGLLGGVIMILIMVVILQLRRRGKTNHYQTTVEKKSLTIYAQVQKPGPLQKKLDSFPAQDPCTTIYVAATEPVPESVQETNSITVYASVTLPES

“anti-CD150 mAb (clone IPO-3, Affinity Bioreagents) (antibody)” was tested, and the IL-1A production, mRNA level (real-time RT-PCR) was 55 fold and the IL-1A production, protein level (ELISA) was 23 fold.
